Assay results as given in patent US20240158474A1 (SINO BIOLOGICAL, published 2024).

Key:
Assay in all cases: indirect ELISA, VLP coated at 2 µg/mL, antibody 10 ng/mL, HRP goat anti-rabbit Fc
HPV56 VLP protein = target: T1, HPV56 VLP protein (human papillomavirus type 56, UniProt P36743 36-507)
T1 construct: Complete VLP protein; no limits of the construct printed, whole entry named; also called HPV56L1
T1 sequence: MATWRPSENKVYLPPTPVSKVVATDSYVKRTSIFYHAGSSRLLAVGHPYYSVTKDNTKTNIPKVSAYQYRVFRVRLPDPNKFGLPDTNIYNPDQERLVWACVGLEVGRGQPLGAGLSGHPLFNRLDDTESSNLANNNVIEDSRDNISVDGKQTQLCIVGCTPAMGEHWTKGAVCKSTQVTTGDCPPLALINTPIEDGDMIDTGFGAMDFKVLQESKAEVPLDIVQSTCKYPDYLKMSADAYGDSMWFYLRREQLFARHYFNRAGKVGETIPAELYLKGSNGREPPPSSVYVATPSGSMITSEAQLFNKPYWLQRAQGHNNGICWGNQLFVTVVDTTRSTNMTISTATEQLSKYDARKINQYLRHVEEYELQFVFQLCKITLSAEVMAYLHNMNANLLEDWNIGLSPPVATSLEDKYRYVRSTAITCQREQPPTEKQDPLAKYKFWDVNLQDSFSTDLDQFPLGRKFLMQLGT

HPV58 VLP protein = target: T2, HPV58 VLP protein (human papillomavirus type 58, UniProt P26535 27-499)
T2 construct: Complete VLP protein; no limits of the construct printed, whole entry named; also called P58SHELL
T2 sequence: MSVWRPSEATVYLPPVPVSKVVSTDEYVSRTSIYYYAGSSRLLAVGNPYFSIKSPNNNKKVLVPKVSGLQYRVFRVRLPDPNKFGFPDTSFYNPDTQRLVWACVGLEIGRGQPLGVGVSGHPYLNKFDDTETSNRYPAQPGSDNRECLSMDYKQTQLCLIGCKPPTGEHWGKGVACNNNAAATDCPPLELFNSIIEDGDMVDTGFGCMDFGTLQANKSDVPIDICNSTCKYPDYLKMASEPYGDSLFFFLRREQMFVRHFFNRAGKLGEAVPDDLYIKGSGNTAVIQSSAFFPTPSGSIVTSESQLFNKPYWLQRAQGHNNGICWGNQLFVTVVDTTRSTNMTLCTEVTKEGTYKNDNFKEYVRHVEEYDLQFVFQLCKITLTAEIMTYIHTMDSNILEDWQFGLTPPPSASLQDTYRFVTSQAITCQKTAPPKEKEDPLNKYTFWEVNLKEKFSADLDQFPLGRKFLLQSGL

HPV11 VLP protein = target: T3, HPV11 VLP protein (human papillomavirus type 11; human …, UniProt P04012 1-470; P06416 474-499)
T3 construct: range 1-470;range 474-499; Complete VLP protein used as coating protein
T3 sequence: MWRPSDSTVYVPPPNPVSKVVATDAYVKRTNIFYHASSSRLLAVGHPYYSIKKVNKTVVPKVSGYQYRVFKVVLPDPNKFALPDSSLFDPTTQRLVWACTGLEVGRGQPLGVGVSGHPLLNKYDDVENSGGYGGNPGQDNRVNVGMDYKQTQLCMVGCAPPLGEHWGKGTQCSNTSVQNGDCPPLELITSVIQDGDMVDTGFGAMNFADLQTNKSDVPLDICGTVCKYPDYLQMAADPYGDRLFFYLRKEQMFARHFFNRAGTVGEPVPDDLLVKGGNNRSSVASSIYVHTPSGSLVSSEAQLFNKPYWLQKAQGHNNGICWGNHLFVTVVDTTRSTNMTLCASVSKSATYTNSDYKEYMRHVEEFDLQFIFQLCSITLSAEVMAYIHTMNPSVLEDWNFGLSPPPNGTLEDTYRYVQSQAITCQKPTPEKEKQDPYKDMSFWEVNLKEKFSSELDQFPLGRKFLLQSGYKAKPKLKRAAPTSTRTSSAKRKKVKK

HPV18 VLP protein = target: T4, HPV18 VLP protein (human papillomavirus type 18)
T4 construct: Complete VLP protein; no limits of the construct printed, whole entry named; also called P18SHELL

HPV35 VLP protein = target: T5, HPV35 VLP protein (human papillomavirus type 35; human …, UniProt P27232 1-472; P06416 474-499)
T5 construct: range 1-472;range 474-499; Complete VLP protein used as coating protein; also called HPV35L1(1-472L)+HPV33L1(474K-499K)
T5 sequence: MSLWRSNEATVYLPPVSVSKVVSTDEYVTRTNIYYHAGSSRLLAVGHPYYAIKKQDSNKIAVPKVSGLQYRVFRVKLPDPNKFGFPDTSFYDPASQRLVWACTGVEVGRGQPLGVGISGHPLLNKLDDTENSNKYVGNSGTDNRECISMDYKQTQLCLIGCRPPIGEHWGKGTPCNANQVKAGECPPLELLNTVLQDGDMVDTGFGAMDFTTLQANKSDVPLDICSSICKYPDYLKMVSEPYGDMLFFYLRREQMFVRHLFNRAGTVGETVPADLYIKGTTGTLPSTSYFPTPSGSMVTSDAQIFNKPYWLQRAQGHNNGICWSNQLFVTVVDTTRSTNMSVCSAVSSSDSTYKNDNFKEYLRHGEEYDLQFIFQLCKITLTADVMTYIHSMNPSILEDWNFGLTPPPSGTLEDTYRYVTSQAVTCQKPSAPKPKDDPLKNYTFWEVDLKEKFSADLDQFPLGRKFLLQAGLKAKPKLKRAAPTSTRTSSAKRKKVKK

B1: monoclonal antibody HPV6-R003 (antibody, V domains shown)
VH: QQQLEESGGGLVKPGGTLTLTCKASGIDLSNYYMCWVRQAPGKGLEWIGCIYTGSGRTYYASWAKGRFTISKASSTTVTLQMTSLTAADTATYFCARDYLGWRASNIWGPGTLVTVSS
VL: ELVMTQTPSSVSAAVGGTVTINCQASQSVYSNNLVWYQQKPGQPPKLLIYGASTLASGVPSRFKGSGSGTQFTLTISDVVCDDAATYYCGGYVSDSTDGTAFGGGTEVVVKG
notes: here built from variable plus constant region so that the signal peptides are left out; In the sandwich ELISA the same antibody is used as coating antibody and, labelled with horseradish peroxidase, as detection antibody; also called anti-HPV6 L1 protein antibody
OD450-blank (HPV56 VLP protein): 0.042 OD450
OD450-blank (HPV58 VLP protein): 0.044 OD450
OD450-blank (HPV11 VLP protein): 0.053 OD450
OD450-blank (HPV18 VLP protein): 0.045 OD450
OD450-blank (HPV35 VLP protein): 0.048 OD450
